Target: the molecule itself
Assay: crystal structure

B1: Octaprenyl pyrophosphate synthase from Escherichia coli (enzyme, E. coli)
chain: MNLEKINELTAQDMAGVNAAILEQLNSDVQLINQLGYYIVSGGGKRIRPMIAVLAARAVGYEGNAHVTIAALIEFIHTATLLHDDVVDESDMRRGKATANAAFGNAASVLVGDFIYTRAFQMMTSLGSLKVLEVMSEAVNVIAEGEVLQLMNVNDPDITEENYMRVIYSKTARLFEAAAQCSGILAGCTPEEEKGLQDYGRYLGTAFQLIDDLLDYNADGEQLGKNVGDDLNEGKPTLPLLHAMHHGTPEQAQMIRTAIEQGNGRHLLEPVLEAMNACGSLEWTRQRAEEEADKAIAALQVLPDTPWREALIGLAHIAVQRDR
  stoichiometry N: 2
